Assay [1] addresses T1, N-NR1 (NH2-terminal domain of NR1, a.a 1-561) fusion protein (Rattus norvegicus, UniProt P35439).
T1 construct: N-NR1 (aa. 1-561); made in house
As to the kind of experiment: Phage ELISA, binding to immobilized N-NR1 fusion protein. Also noted: Inhibition of Mag-4.1 phage binding to N-NR1 by synthetic peptide: dose or concentration left out as unconfirmed. The procedure: Phage selection. Six wells of a 96-well plate were precoated with mAb8610 ([…]) at 37° C. for one hour, blocked with 1% BSA for 30 minutes at 37° C. The N-NR1 fusion protein was first released by PIPLC digest after extensive washes of cells that express N-NR1. The released N-NR1 protein in the MEM medium was first treated by endo-F (1 unit per 10 mg protein) for overnight at 37° C. The treated preparation was affinity-purified by mAb8610 capture on the plates (1 mg of N-NR1 per well) at 22° C. for one hour. The phage binding was carried out by incubating with a total of 10^12 tu (transducing units) of a X9 library with a complexity of 1.2×10^10 recombinants. The binding buffer contains 10 mM Tris-HCl (pH 8.1), 100 mM NaCl and 1 mM EDTA for 3 hours at 4° C. Unbound material was removed with three washes of the binding buffer. The bound phagemid particles were recovered by adding […] of 0.1 M glycine-HCl (pH 2.2). After 10 minutes elution at room temperature, the elutes were immediately neutralized by mixing with equal volume of 0.1 M Trisbase (pH 9.2). The recovered phagemids were amplified in bacteria, and resultant phage preparations were used for the following round of purification.
After five consecutive rounds of selection, the ELISA tests were performed using the supernatant of overnight cultures in the presence of 100 mM Hepes-NaOH (pH7.5) and 100 mM NaCl. The wells were coated with receptors according to the procedure described above. The bound phage particles were first detected by using rabbit anti-phage antibody (1:10,000) followed by alkaline phosphatase (AP)-conjugated secondary antibody (1:5,000, Sigma). After washing the wells with the binding buffer, […] of developing solution containing 1 mg/ml pNPP (Sigma, Mo.) in 10 mM diethanolamine-HCl (pH 9.7) was added. The alkaline phosphatase activity was monitored at the wavelength of 408 nm using a microtiter plate reader. Phage purification. The bacteria in culture medium containing phage was removed by centrifugation at 5,000×g for 30 minutes. […]

Assay [2] addresses T2, N-NR1 protein on cell surface of CHO cells (Rattus norvegicus, UniProt P35439).
T2 construct: N-NR1 (aa. 1-561); expressed in transfected cells
As to the kind of experiment: Phage-immunostain of CHO cells expressing N-NR1 on cell surface. The assay is classed as cell-based, Chinese hamster. Particulars: 500 mM Mag-4.1 peptide. The procedure: (§1) Immunostain and Fluorescence Activated Cell Sorting (FACS). The cells were grown on cover glass coated with 1% gelatin. Prior to addition of immunoglobulin, the cells were first washed three times with cold PBS and fixed with 2% paraformaldehyde (PFA) overnight. After washing the cells with cold PBS, the fixed cells were incubated with mAb8610 (1 mg /ml) at room temperature for 1 hour. The binding of mAb8610 was detected by incubating with anti-mouse conjugated with Texas-red (15 mg per ml) 1 hour at 4C. The immunostain was visualized by a Nikon Optiphot-2 fluorescent microscope and images were collected/digitalized using a computer. Cytometry of stained cells were analyzed on either FACScan or FACStar Plus Sorter (Becton-Dickinson, San Jose, Calif.). An Argon laser is used and tuned at 488 nm. The green fluorescence was recorded in the FLI emission channel.
(§2) Phage-immunostain and Phage-FACS detection. The purified phage preparation was used to stain live cells. For immunostain the cells were washed three times with cold PBS. Phage binding were initiated by incubating with the cells with purified phage (10^10 tu per ml) on ice for 1 hour. […] The phage-binding was detected first by rabbit anti-phage antibody (1:10,000 dilution) followed by Fluorescein labeled anti-rabbit antibody (10 mg/ml, Vector Lab, Calif.). The fluorescence labeled cells were visualized under a fluorescence microscope. […]

Assay [3] concerns the target T3, N-NR1 protein on CHO cells (Rattus norvegicus, UniProt P35439).
T3 construct: N-NR1 (aa. 1-561); expressed in transfected cells
Nature of the assay: Phage-FACS of CHO cells expressing N-NR1. The assay is classed as cell-based, Chinese hamster. The procedure:
as §1, §2

For assay [4], the target named is T4, functional NMDA receptor channels (NR1 and NR2A) in HEK cells (Rattus norvegicus, UniProt P35439).
T4 construct: expressed in transfected cells; host or cells: HEK cells, transient cotransfection
Nature of the assay: Phage-immunostain of HEK cells transiently expressing NR1 and NR2A. The assay is classed as cell-based. As to conditions: 500 mM synthetic Mag-4.1 peptide. The procedure:
Phage-immunostain and Phage-FACS detection. The purified phage preparation was used to stain live cells. For immunostain the cells were washed three times with cold PBS. Phage binding were initiated by incubating with the cells with purified phage (10^10 tu per ml) on ice for 1 hour. After incubation, the unbound phage was removed by three washes of cold PBS supplemented with 1% bovine serum albumin (BSA). the fixation was carried out using 2% PFA overnight at 4C. The phage-binding was detected first by rabbit anti-phage antibody (1:10,000 dilution) followed by Fluorescein labeled anti-rabbit antibody (10 mg/ml, Vector Lab, Calif.). The fluorescence labeled cells were visualized under a fluorescence microscope. For Phage-FACS, the cell preparation procedures were identical except the cells were first dislodged from the dishes by incubating with PBS supplemented with 5 mM EDTA.

Assay [5] addresses N-NR1 fusion protein (putative amino-terminal domain of NR1, a.a 1-561, fused to the mAb8610 epitope tag and GPI anchor signal sequence) (UniProt P35439). As to the kind of experiment: phage-overlay on nitrocellulose after denaturation-renaturation.

As for LEAWFLQYI [Mag-4.2], in assay [1] (phage ELISA, immobilized N-NR1), the “Phage binding to N-NR1” value is on record as “specifically association with N-NR1”.

For the molecule GGGLNDWFITYIGGG [Mag-4.1 peptide], the “Inhibition of phage staining signal by synthetic peptide” value in assay [2] is recorded as “completely inhibited”. In addition, the “Inhibition of FACS phage stain signal by synthetic peptide, low N-NR1 CHO cells” value in assay [3] (500 mM Mag-4.1 peptide (FIG. 5C)) is “completely inhibited”. For the same molecule, the “Effect of synthetic peptide on FACS staining signal, 1:1 mixture of low and high N-NR1 CHO cells” value in assay [3] (500 mM Mag-4.1 peptide (FIG. 5E)) was “the staining signal is sensitive to Mag-4.1 peptide”. Moreover, the “Affinity of monovalent peptide” value in assay [1] (competition phage ELISA (FIG. 1C)) is on record as “low affinity”. In assay [1] (synthetic peptide, phage ELISA), the “Inhibition of Mag-4.1 phage binding to N-NR1 by synthetic peptide” value is “completely inhibited”. Further, in assay [4], the “Inhibition of phage stain signal on NR1/NR2A HEK cells by synthetic peptide” value was “completely inhibited”.

Molecule LNDWFITYI (peptide, not shown: large carriers) [Mag-4.1 phage] displayed a least amount of N-NR1 protein per lane at which specific binding is detected in assay [5] of 20 ng.
